From US20070072239A1 (Pfizer, published 2007)

T1: Wnt3 (human, UniProt P56703 22-355 at identity 1.00), limits assumed)
T1 chain: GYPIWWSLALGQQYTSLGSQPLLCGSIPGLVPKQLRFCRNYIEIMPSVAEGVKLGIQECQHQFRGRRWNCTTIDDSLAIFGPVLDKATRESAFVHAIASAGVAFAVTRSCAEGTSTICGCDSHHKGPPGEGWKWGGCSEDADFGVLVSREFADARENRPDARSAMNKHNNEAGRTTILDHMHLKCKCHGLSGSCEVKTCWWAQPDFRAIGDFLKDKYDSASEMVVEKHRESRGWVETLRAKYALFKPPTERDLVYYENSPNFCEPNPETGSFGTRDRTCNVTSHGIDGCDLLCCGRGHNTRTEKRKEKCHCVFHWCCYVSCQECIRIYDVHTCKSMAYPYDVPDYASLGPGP

B1: SFRP-1/SFRP-2(1-226)/(214-295) chimera (receptor)
chain: SEYDYVSFQSDIGPYQSGRFYTKPPQCVDIPADLRLCHNVGYKKMVLPNLLEHETMAEVKQQASSWVPLLNKNCHAGTQVFLCSLFAPVCLDRPIYPCRWLCEAVRDSCEPVMQFFGFYWPEMLKCDKFPEGDVCIAMTPPNATEASKPQGTTVCPPCDNELKSEAIIEHLCASEFALRMKIKEVKKENGDKKIVLETKSKTIYKLNGVSERDLKKSVLWLKDSLQCTCEEMNDINAPYLVMGQKQGGELVITSVKRWQKGQREFKRISRSIRKLQC
B2: SFRP-1/SFRP-2 (1-248/238-295) chimera (receptor)
chain: SEYDYVSFQSDIGPYQSGRFYTKPPQCVDIPADLRLCHNVGYKKMVLPNLLEHETMAEVKQQASSWVPLLNKNCHAGTQVFLCSLFAPVCLDRPIYPCRWLCEAVRDSCEPVMQFFGFYWPEMLKCDKFPEGDVCIAMTPPNATEASKPQGTTVCPPCDNELKSEAIIEHLCASEFALRMKIKEVKKENGDKKIVPKKKKPLKLGPIKKKDLKKLVLWLKDSLQCTCEEMNDINAPYLVMGQKQGGELVITSVKRWQKGQREFKRISRSIRKLQC

Target: T1, Wnt3
Test: cell-based or functional assay

Row | Binder | loss of Wnt3 antagonist activity relative to SFRP-1 (TCF-Luciferase reporter)
1 | B1 | ~40 % loss of activity
2 | B2 | ~40 % loss of activity
